From doi:10.1101/2022.10.21.513107 (bioRxiv, 2022) come the findings set out here.

In assay [1] the target is endogenous HPV16 E6 protein of SiHa cells (Human papillomavirus type 16, SiHa …, UniProt P03126). The assay is described as follows: immunostaining of cells or tissue.
Assay [2] concerns the target His6MBP-4C/4S E6 (Human papillomavirus type 16, reference …, UniProt P03126, stabilised). The assay is described as follows: far-Western, overlay or dot blot.

B1: sdAb C26 (VHH)
VHH: QVQLVESGGGLVQAGGSLRLSCAASGSIYSINAMGWYRQAPGKQRELVAVITSSGSTNYADAVKGRFTISRDNAKNQVYLQMNSLKPEDTAVYYCHAWSPFRGSFSGDALDAWGQGTQVTVSS
As to B1, the binding result in assay [1] is reported as “binds”.

B2: sdAb C38 (VHH)
VHH: QVQLVESGGGVVQAGGSLRLSCAPSGNIFSINTMGWHRQAPGKQREFVARIRSSGQTNYADSVKGRFTISKDSAKDTVYLQMDNLQPEDSAVYYCTFNSGGWGVERKRRDYWGQGTQVTVSS
Consider B2, for which the binding result in assay [2] was “binds”.

B3: sdAb 2A04 (VHH)
VHH: QVKLEESGGGVVQAGGSLRLSCAPSGNIFSINTMGWHRQAPGKQREFVARIRSSGQTNYADSVKGRFTISKDSAKDTVYLQMDNLQPEDTAVYYCTFNTGGWGVERQRRDYWGQGTQVTVSS
Take B3: the binding result in assay [1] is “binds”.

B4: sdAb A37 (VHH)
VHH: QVKLEESGGGLVQAGGSLRLSCVASGSTFIITDMAWYRQAPGKQRELVAGITLRGGTNYADSVKGRFTISRDNVKNTVTLQMNSLKPEDTAVYYCNAKVAEWRNRPDYWGQGTQVTVSS
For B4, the binding result in assay [1] is listed as “binds”.

B5: sdAb 2A03 (VHH)
VHH: QVQLVESGGGLVQAGGSLRLSCAASGRTSSINIMGWYRQPPGKQREMVATIATGGTTNYAESVKGRFTISRDGAKFVYLQLNDLKPEDTAVYYCNAYRYAVGKNQRAWDIWGQGTQVTVSS
Consider B5, for which the binding result in assay [1] is “binds”.
